Test results reported in US20240317884A1, “METHOD FOR ALLOWING IMMUNE CELLS INFILTRATION IN TUMORS” (Alethia Biotherapeutics Inc., priority 2021, published 2024).
“And” between values parts separate entries of the source, which are not always exact repeats. Equal values may be shown once. “Also recorded” adds a separate entry of the source.

Tests used:
[1] = Non-clinical pharmacokinetics, single and repeat-dose, rats; format: in vivo; conditions: Sprague-Dawley rats; infusion
Description: (§1) There was an approximate 70% increase in systemic exposure following repeated dosing from Day 1 to Day 26 which is consistent with the elimination half-life of AB-16B5 and the dosing intervals. […] The sCLU concentrations were generally back to their baseline levels after 3 to 5 days. The concurrent decrease in sCLU concentrations immediately following dosing with AB-16B5 is consistent with an antigen-sink phenomenon.

[2] = Non-clinical pharmacokinetics, single and repeat-dose, monkeys; format: in vivo; conditions: Rhesus monkeys
Description: as §1

[3] = target: T1, sCLU (Macaca mulatta, UniProt F6S885); test: sCLU serum concentrations after single dose of AB-16B5; format: in vivo; conditions: Rhesus monkeys
T1 construct: from tissue; host or cells: serum of Rhesus monkeys dosed with AB-16B5
Description: as §1

[4] = Non-clinical toxicity, weekly administration, rats; format: in vivo, Sprague-Dawley rats
Description: This finding most likely reflects a slight antigenic stimulation by AB-16B5 in these 2 regional lymph nodes.

[5] = Non-clinical toxicity, weekly administration, monkeys; format: in vivo, Rhesus monkeys
Description: Consequently, they were not considered to be toxicologically significant.

[6] = tested on: advanced solid malignancy; test: Phase I study AB-16B5-101: tumor response (RECIST); format: in vivo, human
[7] = Phase I study AB-16B5-101: safety profile; format: in vivo, human
[8] = tested on: E-cadherin, vimentin; test: Phase I: immunohistochemistry on paired tumor biopsies (epithelial phenotype); format: in vivo, human
Method: (§2) Immunohistochemistry studies were conducted on paired tumor biopsies to determine if the treatment with AB-16B5 was associated with a reacquisition of an epithelial phenotype.

[9] = tested on: tumor biopsies; test: Phase I: necrosis in tumor biopsies; format: in vivo, human; conditions: for Necrosis Pre-Treatment: baseline
Method: Tumor biopsies were collected during the standard dose escalation to investigate the presence of AB-16B5 within the tumor. A total of 4 pre-treatment and 5 post-treatment tumor biopsies were suitable for analysis. These post-treatment tumor biopsies were collected following dosing on Cycle 2 Day 15 (between Cycle 2 Day 15 and Cycle 2 Day 18). The biopsy sites were liver (n=2), lymph node (n=2), bladder, skin and vulva.
as §2

[10] = Phase I: plasma pharmacokinetics (non-compartmental analysis); format: in vivo, human; conditions: for AUC0-t / Cmax / Thalf: mean; for AUC0-t / Cmax / Thalf / Tmax: plasma, first dose of cycle; for Tmax: median
Description: Plasma PK parameters for AB-16B5 were derived from the concentration-time profiles following the first dose of Cycle 1 and the first dose of Cycle 2 using a non-compartmental analysis (NCA) with Phoenix WinNonlin.

[11] = tested on: CA 15-3, CA-125, CA 19-9, CEA, LDH and PSA; test: Phase I: circulating tumor biomarkers; format: in vivo, human
Method: Several well-established circulating biomarkers were evaluated to monitor the response to therapy. They included CA 15-3, CA-125, CA 19-9, CEA, LDH and PSA.

[12] = RECIST-evaluable population (14 subjects), 1.5-12.0 mg/kg
[13] = Subject 001, Pancreatic, 1.5 mg/kg weekly IV, 2 cycles
[14] = Subject 003, Soft Tissue Sarcoma, 6.0 mg/kg weekly IV, 2 cycles
[15] = Subject 005, Prostate, 6.0 mg/kg weekly IV, 2 cycles
[16] = Subject 010, Colorectal, 12.0 mg/kg weekly IV, 4 cycles
[17] = Subject 012, Breast, 12.0 mg/kg weekly IV, 2 cycles
[18] = Subject 013, Prostate, 12.0 mg/kg weekly IV, 2 cycles
[19] = Subject 014, Vulvar Melanoma, 12.0 mg/kg weekly IV, 2 cycles
[20] = Subject 006, Breast, biopsy site Skin, 9.0 mg/kg
[21] = Subject 007, Gastric, biopsy site Gastric, 9.0 mg/kg
[22] = Subject 012, Breast, biopsy site Skin, 12.0 mg/kg
[23] = Subject 013, Prostate, biopsy site Bladder, 12.0 mg/kg

T1 sequence (F6S885 22-448): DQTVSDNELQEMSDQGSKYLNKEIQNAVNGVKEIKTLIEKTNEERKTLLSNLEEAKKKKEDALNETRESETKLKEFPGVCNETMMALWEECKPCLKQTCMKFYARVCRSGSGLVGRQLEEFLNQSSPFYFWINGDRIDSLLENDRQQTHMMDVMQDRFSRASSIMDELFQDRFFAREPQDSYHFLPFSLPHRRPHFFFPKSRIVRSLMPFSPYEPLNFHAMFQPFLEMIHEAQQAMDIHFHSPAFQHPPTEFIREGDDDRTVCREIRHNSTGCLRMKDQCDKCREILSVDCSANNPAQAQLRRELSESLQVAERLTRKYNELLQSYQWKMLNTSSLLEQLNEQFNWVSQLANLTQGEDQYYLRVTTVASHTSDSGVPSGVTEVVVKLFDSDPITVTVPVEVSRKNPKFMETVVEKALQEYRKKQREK

## AB-16B5: humanized IgG2 monoclonal antibody targeting sCLU; light chain SEQ ID NO:11, heavy chain SEQ ID NO:12
[1]
  systemic exposure over 24 hours with increasing dose levels: dose proportional manner
[2]
  systemic exposure with increasing dose levels: generally greater than dose proportional
[2]; repeated dosing once or twice weekly
  drug accumulation in terms of Cmax: no evidence of drug accumulation
[3]
  sCLU serum concentrations following dosing: decreased significantly
[4]; Sprague-Dawley rats, weekly administration
  No Observable Adverse Effect Level (NOAEL): 100 mg/kg/dose
[4]; rat, in vivo
  incidence of minimal lymphoid hypercellularity, mandibular lymph node: 1/20
  incidence of minimal lymphoid hypercellularity, mesenteric lymph node: 2/20
  treatment-related clinical signs and changes (body weight, food consumption, ophthalmology, clinical pathology, organ weights): did not result in any treatment-related clinical signs
[5]; Rhesus monkeys, weekly administration
  No Observable Adverse Effect Level (NOAEL): 100 mg/kg/dose
[5]; rhesus monkey, in vivo
  signs of overt toxicity: did not result in any signs of overt toxicity
[5]; rhesus monkey, in vivo, 100 mg/kg
  hepatocellular vacuolation in the liver: 2 animals
[6]; [12]
  best overall response progressive disease (PD), number of subjects: 6 subjects
  best overall response progressive disease (PD), share of subjects: 43%
  best overall response stable disease (SD), number of subjects: 8 subjects
  best overall response stable disease (SD), share of subjects: 57%
[6]; [13]
  Best Overall Response: PD (progressive disease (PD))
  Tumor Response at Last Assessment Non-Target Lesions: PD (New (progressive disease (PD))
  Tumor Response at Last Assessment Target Lesions: PD (progressive disease (PD))
[6]; Subject 002, Endometrium, 3.0 mg/kg weekly IV, 4 cycles
  Tumor Response at Last Assessment Target Lesions: PD (progressive disease (PD))
[6]; [14]
  Best Overall Response: PD (progressive disease (PD))
  Tumor Response at Last Assessment Non-Target Lesions: PD (New (progressive disease (PD))
[6]; [15]
  Best Overall Response: PD (progressive disease (PD))
  Tumor Response at Last Assessment Target Lesions: PD (progressive disease (PD))
[6]; Subject 007, Gastric, 9.0 mg/kg weekly IV, 8 cycles
  Tumor Response at Last Assessment Non-Target Lesions: PD (New (progressive disease (PD))
[6]; Subject 008, Thyroid, 9.0 mg/kg weekly IV, 4 cycles
  Tumor Response at Last Assessment Non-Target Lesions: PD (New (progressive disease (PD))
[6]; Subject 009, Lung, 12.0 mg/kg weekly IV, 6 cycles
  Tumor Response at Last Assessment Non-Target Lesions: PD (New (progressive disease (PD))
[6]; [16]
  Tumor Response at Last Assessment Non-Target Lesions: PD (New (progressive disease (PD))
  Tumor Response at Last Assessment Target Lesions: PD (progressive disease (PD))
[6]; [17]
  Best Overall Response: PD (progressive disease (PD))
  Tumor Response at Last Assessment Non-Target Lesions: PD (progressive disease (PD))
[6]; [18]
  Best Overall Response: PD (progressive disease (PD))
  Tumor Response at Last Assessment Non-Target Lesions: PD (New (progressive disease (PD))
[6]; [19]
  Best Overall Response: PD (progressive disease (PD))
  Tumor Response at Last Assessment Non-Target Lesions: PD (New (progressive disease (PD))
[6]; Subject 015, Ovarian Cancer, 12.0 mg/kg weekly IV, 4 cycles
  Tumor Response at Last Assessment Non-Target Lesions: PD (New (progressive disease (PD))
[6]; patient with advanced gastric cancer
  time on treatment with stable disease (SD) and clinical benefit: 24 weeks
[7]; 5 of 15 subjects, all SAEs considered unrelated to AB-16B5
  subjects reporting SAEs: 33%
[7]; 15 subjects, all causalities
  AEs reported, total: 167
[7]; 60-minute IV weekly infusion
  dose at which weekly infusion was safe and well tolerated: up to 12 mg/kg
[7]; 60-minute IV weekly infusion, 1.5 to 12.0 mg/kg, 15 subjects
  dose-limiting toxicity: No dose-limiting toxicity; also recorded: No dose-limiting toxicities
[7]; Subjects 004 and 014, associated with progression of the disease
  deaths reported in the study: Two
[7]; all considered unrelated to AB-16B5
  number of SAEs: 6 and 5
[7]; reported by 8 subjects
  AEs of Grade 3 to 5: 12
[7]; two subjects (004, 011)
  subjects who discontinued the study due to an adverse event: 13%
[8]; [20]
  E-cadherin Expression in Post-Treatment: Increase
[8]; [21]
  E-cadherin Expression in Post-Treatment: Increase
[8]; Subject 007, advanced gastric cancer, paired tumor biopsies
  vimentin expression after treatment: loss of vimentin expression
[8]; [22]
  E-cadherin Expression in Post-Treatment: Decrease
[8]; [23]
  E-cadherin Expression in Post-Treatment: did not change; also recorded: No change
[9]; [20]
  Necrosis Post-Treatment: 10%
[9]; Subject 006, Breast, biopsy site Skin
  Necrosis Pre-Treatment: 0%
[9]; [21]
  Necrosis Post-Treatment: 0%
[9]; Subject 007, Gastric, biopsy site Gastric
  Necrosis Pre-Treatment: 0%
[9]; [22]
  Necrosis Post-Treatment: 5%
[9]; Subject 012, Breast, biopsy site Skin
  Necrosis Pre-Treatment: 0%
[9]; [23]
  Necrosis Post-Treatment: 10%
[9]; Subject 013, Prostate, biopsy site Bladder
  Necrosis Pre-Treatment: 0%
[10]; Cycle 1, 1.5 mg/kg (N = 1)
  AUC0-t: 230,321 ng*h/mL
  Cmax: 17,958 ng/mL
  Thalf: 9.35 h
  Tmax: 1.17 h
[10]; Cycle 1, 3.0 mg/kg (N = 1)
  AUC0-t: 645,602 ng*h/mL
  Cmax: 50,736 ng/mL
  Thalf: 7.39 h
  Tmax: 1.08 h
[10]; Cycle 1, 6.0 mg/kg (N = 3)
  AUC0-t: 1,357,773 ng*h/mL
  Cmax: 117,663 ng/mL
  Thalf: 6.99 h
  Tmax: 1.00 h
[10]; Cycle 1, 9.0 mg/kg (N = 3)
  AUC0-t: 2,083,091 ng*h/mL
  Cmax: 162,103 ng/mL
  Thalf: 10.78 h
  Tmax: 2.00 h
[10]; Cycle 1, 12.0 mg/kg (N = 7)
  AUC0-t: 4,045,786 ng*h/mL
  Cmax: 256,977 ng/mL
  Thalf: 11.99 h
  Tmax: 1.12 h
[10]; Cycle 2, 1.5 mg/kg (N = 1)
  AUC0-t: 188,584 ng*h/mL
  Cmax: 15,662 ng/mL
  Thalf: 7.97 h
  Tmax: 1.00 h
[10]; Cycle 2, 3.0 mg/kg (N = 1)
  AUC0-t: 688,934 ng*h/mL
  Cmax: 61,466 ng/mL
  Thalf: 6.82 h
  Tmax: 1.05 h
[10]; Cycle 2, 6.0 mg/kg (N = 3)
  AUC0-t: 1,351,156 ng*h/mL
  Cmax: 120,466 ng/mL
  Thalf: 7.70 h
  Tmax: 1.03 h
[10]; Cycle 2, 9.0 mg/kg (N = 3)
  AUC0-t: 2,459,988 ng*h/mL
  Cmax: 163,840 ng/mL
  Thalf: 13.75 h
  Tmax: 1.08 h
[10]; Cycle 2, 12.0 mg/kg (N = 7)
  AUC0-t: 4,147,243 ng*h/mL
  Cmax: 230,268 ng/mL
  Thalf: 21.04 h
  Tmax: 1.04 h
[10]; dose range of 3.0 to 12.0 mg/kg, Cycle 1 and Cycle 2
  increase of mean Cmax and AUC0-t (systemic exposure) with the dose: dose proportional
[10]; weekly IV infusion
  accumulation of AB-16B5 between Cycle 1 and Cycle 2: No significant accumulation
[11]; CA 15-3, CA-125, CA 19-9, CEA, LDH and PSA, correlated with disease progression
  tumor biomarker levels over time: increased over time
[11]; in few patients
  level of CEA: remained stable or decreased
